Target: SARS-CoV-2 original 2019-CoV Spike, prefusion trimeric ectodomain (2P, GSAS, T4 foldon) (SARS-CoV-2, UniProt P0DTC2 14-1213)
Assay: BLI
Settings: both partners purified

B1: cat ACE2-Fc (residues 19-615, mouse IgG2a Fc fusion) (Fc fusion)
chain: STTEELAKTFLEKFNHEAEELSYQSSLASWNYNTNITDENVQKMNEAGAKWSAFYEEQSKLAKTYPLAEIHNTTVKRQLQALQQSGSSVLSADKSQRLNTILNAMSTIYSTGKACNPNNPQECLLLEPGLDDIMENSKDYNERLWAWEGWRAEVGKQLRPLYEEYVALKNEMARANNYEDYGDYWRGDYEEEWTDGYNYSRSQLIKDVEHTFTQIKPLYQHLHAYVRAKLMDTYPSRISPTGCLPAHLLGDMWGRFWTNLYPLTVPFGQKPNIDVTDAMVNQSWDARRIFKEAEKFFVSVGLPNMTQGFWENSMLTEPGDSRKVVCHPTAWDLGKGDFRIKMCTKVTMDDFLTAHHEMGHIQYDMAYAVQPFLLRNGANEGFHEAVGEIMSLSAATPNHLKTIGLLSPGFSEDSETEINFLLKQALTIVGTLPFTYMLEKWRWMVFKGEIPKEQWMQKWWEMKREIVGVVEPVPHDETYCDPASLFHVANDYSFIRYYTRTIYQFQFQEALCRIAKHEGPLHKCDISNSSEAGKKLLQMLTLGKSKPWTLALEHVVGEKKMNVTPLLKYFEPLFTWLKEQNRNSFVGWNTDWRPYAD
B1: binds.

— paper PMC10109501 (PLOS Pathogens, 2023)
